In test [1] the target is HLA-A*23:01. The test can be described thus: IEDB peptide-MHC binding, purified MHC/competitive/radioactivity; filed as Kd, often an IC50 or EC50 that approximates it; ≥ and ≤ were set here for values at or beyond the usual limits of such assays.
Test [2] has as its target HLA-A*32:01. Described as above.
In test [3] the target is HLA-A*24:02. The test is described as above.
Test [4] concerns the target HLA-A*29:02. The test is described as above.
The target of test [5] is HLA-A*30:02. The description is as above.
The target in test [6] is HLA-A*26:01. The test is described as above.
The target of test [7] is HLA-A*01:01. The test is described as above.
Test [8] concerns the target HLA-A*26:01. The test can be described thus: IEDB peptide-MHC binding, purified MHC/direct/fluorescence; filed as Kd, often an IC50 or EC50 that approximates it; ≥ and ≤ were set here for values at or beyond the usual limits of such assays. Particulars: source organism: Mycobacterium tuberculosis.
Test [9] concerns the target HLA-B*44:02. Briefly: IEDB peptide-MHC binding, purified MHC/competitive/radioactivity; filed as Kd, often an IC50 or EC50 that approximates it; ≥ and ≤ were set here for values at or beyond the usual limits of such assays. Particulars: source organism: Dengue virus 3 Martinique/1243/1999.
Test [10] has as its target HLA-A*33:01. The description is as above.
Test [11] has as its target HLA-A*68:01. Described as above.
Test [12] addresses HLA-A*03:01. The description is as above. Conditions: source organism: Vaccinia virus WR.
For test [13], the target named is HLA-A*11:01. Described as above.
Test [14] deals with HLA-A*31:01. The description is as above.
[15] abbreviates: source organism: Dengue virus 3 Martinique/1243/1999.
Setting [16] is: source organism: Vaccinia virus Copenhagen.
Setting [17] is: source organism: Vaccinia virus WR.
Where [18] appears, read: source organism: SARS coronavirus Tor2.
Where [19] appears, read: source organism: Dengue virus 2 Jamaica/1409/1983.
The mark [20] stands for this setting: source organism: Dengue virus 4 Dominica/814669/1981.
The mark [21] stands for this setting: source organism: Mammarenavirus whitewaterense.
Setting [22] is: source organism: Mammarenavirus guanaritoense.
Where [23] appears, read: source organism: Dengue virus 1 Brazil/97-11/1997.
Where [24] appears, read: source organism: Mammarenavirus lassaense.
The mark [25] stands for this setting: source organism: Lassa virus GA391.

pKd: −log10 of the molar value.

For the sequence YWISNGTGNI, the pKd (usually the negative decadic logarithm of the Kd, by convention in mol/L) in [1] (setting [15]) is 6.78.

In the case of LLMYNLLTI, in test [2] (setting [16]), the pKd was 7.14.

On to GTHYQNHGF, for which the pKd in test [2] (setting [17]) was 8.22.

With PTITQMNLKY, the pKd in test [1] (setting [18]) was no more than 4.15; in [3] (setting [18]), no more than 4.15; in test [4] (setting [18]), 7.32; in test [5] (setting [18]) it was 5.95; in test [6] (setting [18]), 6.08; in test [7] (setting [18]) it was 7.05.

For TDNVHTWTEQ, the pKd in [2] (setting [19]) is no more than 4.42.

On to KAADVTWEEE, for which the pKd in test [2] (source organism: Dengue virus 3 Singapore/8120/1995) is no more than 4.48.

Regarding KMFESTYRG, the pKd in test [2] (setting [20]) was 6.04.

In turn, ETAEAMHAS gave a pKd in test [8] of 7.15.

For the sequence LTGYGTVTM, the pKd in [2] (setting [19]) was 4.81.

In the case of AMFTAALNI, the pKd in [2] (setting [17]) is 6.91.

Regarding QYIYMGEPL, the pKd in test [1] (setting [19]) was 6.69.

With GPDDQIGYY, the pKd in test [1] (setting [18]) is no more than 4.11; in test [3] (setting [18]), no more than 4.11; in test [4] (setting [18]), 5.19; in test [5] (setting [18]) it was 5.61; in [6] (setting [18]) it was 4.96; in test [7] (setting [18]), no more than 4.10.

On to FTILCLVPAY, for which the pKd was no more than 4.15 in test [1] (setting [18]); no more than 4.15 in test [3] (setting [18]); 7.81 in test [4] (setting [18]); 6.48 in test [5] (setting [18]); 7.97 in [6] (setting [18]); 6.34 in test [7] (setting [18]).

As for AWMVHRQWFF, the results for the pKd in test [1] (setting [15]), in [3] (setting [15]) and in test [9] were 8.02, 8.33 and 5.66, respectively.

For the sequence VDNVHTWTEQ, the pKd in test [2] (setting [20]) was no more than 4.47.

FYVSSIFLHL: the pKd is 8.07 in [1] (setting [21]), 6.94 in [3] (setting [21]) and 7.96 in test [4] (setting [21]).

TYVPSQERNF: the pKd is 7.41 in test [1] (setting [18]); 7.14 in test [3] (setting [18]); 5.88 in test [4] (setting [18]); 4.85 in test [5] (setting [18]); no more than 4.16 in test [6] (setting [18]); no more than 4.15 in test [7] (setting [18]).

For the sequence SIIFINYTM, the pKd in [2] (setting [16]) was 8.19.

In the case of TAEDMLNPNY, the pKd is no more than 4.15 in [1] (setting [18]); no more than 4.15 in test [3] (setting [18]); 5.26 in test [4] (setting [18]); 5.97 in test [5] (setting [18]); 4.75 in [6] (setting [18]); 5.98 in test [7] (setting [18]).

For the sequence DLIKKSDAKR, the pKd is 8.05 in test [10] (setting [17]); 7.54 in test [4] (setting [17]); 7.86 in test [11] (setting [17]); 5.20 in [12]; 4.90 in [13] (setting [17]); 8.40 in [14] (setting [17]).

Take VPDIPELSY: the pKd in [1] (setting [22]) is no more than 4.11; in [3] (setting [22]) it was no more than 4.11; in test [4] (setting [22]) it was 4.93; in test [5] (setting [22]), no more than 4.60; in test [6] (setting [22]), no more than 4.31; in [7] (setting [22]), 5.51.

For the sequence TVMDVISRR, the pKd was 8.15 in [10] (setting [23]); 8.10 in [11] (setting [23]); 5.63 in [6] (setting [23]); 7.52 in [13] (setting [23]); no more than 4.41 in test [14] (setting [23]).

With ESDSKPQKV, the negative logarithm of the Kd (pKd) in [1] (setting [24]) was no more than 4.11; in test [3] (setting [24]), no more than 4.11; in test [4] (setting [24]) it was no more than 4.10; in [5] (setting [24]), no more than 4.11; in [6] (setting [24]), no more than 4.11; in test [7] (setting [24]), 6.74.

On to YCNYSRYWY, for which the pKd in [1] (setting [25]) was no more than 4.43; in test [3] (setting [25]) it was no more than 4.11; in test [4] (setting [25]), 5.91; in test [5] (setting [25]), 6.09; in [6] (setting [25]), no more than 4.11; in test [7] (setting [25]), no more than 4.46.

For the origin of these results see the Immune Epitope Database (IEDB).
